Bridge positions count the residues as written; N and C are the ends. Square brackets hold non-standard residues; d marks the D form. Peptide text beside a SMILES is read from it. * marks the point of attachment. NOTA = O=C(O)CN1CCN(CC(=O)O)CCN(CC(=O)*)CC1; Nle = CCCC[C@H](N)C(=O)O; AEEA = NCCOCCOCC(=O)O
Test: in vivo
Parameters: species or system Sprague-Dawley rats
Conditions: rat; for SUV at 2 h / SUV at 5 min / SUV at 10 min / SUV at 40 min / SUV at 1 h / SUV at 0.5 h: Sprague-Dawley, iv, total radioactivity
Description: Sixteen male (n = 10; 363.3 ± 19.6 g) and female (n = 6; 199.2 ± 5.5 g) Sprague–Dawley rats were used for ex vivo organ distribution of the [^68Ga]Ga-NO2A-[Nle13]-Col for the subsequent extrapolation and calculation of human dosimetry. The male and female animals were administered into the tail vein with, respectively, 2.3 ± 0.8 MBq and 1.4 ± 0.5 MBq, sacrificed at 5, 10, 30, 40, 60, and 120 min post administration, and the organs were harvested, weighted, and measured for their radioactivity content. Samples from the blood, heart, lung, liver, spleen, adrenal glands, kidneys, intestines with or without contents, muscle, testis, bone, brain, pancreas, urine bladder, and bone marrow were collected. To monitor radioactivity elimination and recovery, the radioactivity of the remaining carcass was also measured. The radioactivity measurements were corrected for decay and converted into standardized uptake values (SUVs, Table S2) according to Equation (2), wherein the radioactivity is expressed in MBq and the weight in grams:(2) SUV=Radioactivityorgan∗weightrat/Radioactivityinjected∗weightorgan

[1] = male, SUV large intestine without content (INL-)
[2] = male, SUV small intestine with its content (INS+)

Structure (SMILES): CCCC[C@@H]1NC(=O)[C@H](C(C)C)NC(=O)[C@H](CCCNC(=N)N)NC(=O)CNC(=O)[C@@H]2CCCN2C(=O)[C@@H](NC(=O)COCCOCCNC(=O)CN2CCN(CC(=O)O)CCN(CC(=O)O)CC2)CSSC[C@@H](C(=O)O)NC(=O)[C@@H]2CCCN2C(=O)CNC(=O)[C@H](CCC(=O)O)NC(=O)[C@H](CC(=O)O)NC(=O)[C@H](CC(=O)O)NC(=O)CNC(=O)[C@H](CC(C)C)NC(=O)[C@H](Cc2c[nH]cn2)NC(=O)[C@H](CC(C)C)NC(=O)CNC(=O)[C@H](Cc2c[nH]cn2)NC1=O [[^68Ga]Ga-NO2A-[Nle^13]-Col, [^68Ga]Ga-NOTA-PEG2-c[CPGRVNleHGLHLGDDEGPC], metal not drawn] ({NOTA-AEEA}-CPGRV[Nle]HGLHLGDDEGPC-OH; disulfide 1-18)
- SUV at 2 h (female, SUV spleen (SP)): 0.066 SUV
- SUV at 5 min (male, 2.3 MBq, SUV blood (BL)): 2.22 SUV
- SUV at 10 min (male, 2.3 MBq, SUV blood (BL)): 1.53 SUV
- SUV at 40 min (male, 2.3 MBq, SUV heart (HE)): 0.225 SUV
- SUV at 1 h (male, 2.3 MBq, SUV heart (HE)): 0.123 SUV
- SUV at 2 h (male, 2.3 MBq, SUV heart (HE)): 0.024 SUV
- SUV at 5 min (male, 2.3 MBq, SUV liver (LI)): 0.478 SUV
- SUV at 10 min (male, 2.3 MBq, SUV liver (LI)): 0.308 SUV
- SUV at 0.5 h (male, 2.3 MBq, SUV liver (LI)): 0.193 SUV
- SUV at 40 min (male, 2.3 MBq, SUV liver (LI)): 0.198 SUV
- SUV at 1 h (male, 2.3 MBq, SUV liver (LI)): 0.112 SUV
- SUV at 2 h (male, 2.3 MBq, SUV liver (LI)): 0.0624 SUV
- SUV at 1 h (male, 2.3 MBq, SUV lungs (LU)): 0.217 SUV
- SUV at 2 h (male, 2.3 MBq, SUV lungs (LU)): 0.0955 SUV
- SUV at 5 min (male, SUV TE (testis)): 0.354 SUV
- SUV at 10 min (male, SUV TE (testis)): 0.318 SUV
- SUV at 0.5 h (male, SUV TE (testis)): 0.216 SUV
- SUV at 40 min (male, SUV TE (testis)): 0.245 SUV
- SUV at 1 h (male, SUV TE (testis)): 0.118 SUV
- SUV at 2 h (male, SUV TE (testis)): 0.0322 SUV
- SUV at 5 min (male, SUV adrenals (AD)): 0.82 SUV
- SUV at 10 min (male, SUV adrenals (AD)): 0.549 SUV
- SUV at 0.5 h (male, SUV adrenals (AD)): 0.464 SUV
- SUV at 40 min (male, SUV adrenals (AD)): 0.284 SUV
- SUV at 1 h (male, SUV adrenals (AD)): 0.494 SUV
- SUV at 2 h (male, SUV adrenals (AD)): 0.249 SUV
- SUV at 5 min (male, SUV bladder (UB)): 2.51 SUV
- SUV at 10 min (male, SUV bladder (UB)): 3.13 SUV
- SUV at 0.5 h (male, SUV bladder (UB)): 5.01 SUV
- SUV at 40 min (male, SUV bladder (UB)): 2.8 SUV
- SUV at 1 h (male, SUV bladder (UB)): 3.73 SUV
- SUV at 2 h (male, SUV bladder (UB)): 0.896 SUV
- SUV at 0.5 h (male, SUV blood (BL)): 0.8 SUV
- SUV at 40 min (male, SUV blood (BL)): 0.624 SUV
- SUV at 1 h (male, SUV blood (BL)): 0.316 SUV
- SUV at 2 h (male, SUV blood (BL)): 0.052 SUV
- SUV at 5 min (male, SUV bone (BO)): 0.12 SUV
- SUV at 10 min (male, SUV bone (BO)): 0.243 SUV
- SUV at 0.5 h (male, SUV bone (BO)): 0.143 SUV
- SUV at 40 min (male, SUV bone (BO)): 0.127 SUV
- SUV at 1 h (male, SUV bone (BO)): 0.2 SUV
- SUV at 2 h (male, SUV bone (BO)): 0.0384 SUV
- SUV at 5 min (male, SUV brain (BR)): 0.0955 SUV
- SUV at 10 min (male, SUV brain (BR)): 0.0507 SUV
- SUV at 0.5 h (male, SUV brain (BR)): 0.0346 SUV
- SUV at 40 min (male, SUV brain (BR)): 0.0272 SUV
- SUV at 1 h (male, SUV brain (BR)): 0.0268 SUV
- SUV at 2 h (male, SUV brain (BR)): 0.0058 SUV
- SUV at 5 min (male, SUV heart (HE)): 0.97 SUV
- SUV at 10 min (male, SUV heart (HE)): 0.605 SUV
- SUV at 0.5 h (male, SUV heart (HE)): 0.338 SUV
- SUV at 5 min (male, SUV kidneys (KI)): 19.2 SUV
- SUV at 10 min (male, SUV kidneys (KI)): 14.2 SUV
- SUV at 0.5 h (male, SUV kidneys (KI)): 13.6 SUV
- SUV at 40 min (male, SUV kidneys (KI)): 13.1 SUV
- SUV at 1 h (male, SUV kidneys (KI)): 8.67 SUV
- SUV at 2 h (male, SUV kidneys (KI)): 11.5 SUV
- SUV at 5 min [1]: 1.01 SUV
- SUV at 10 min [1]: 0.919 SUV
- SUV at 0.5 h [1]: 0.476 SUV
- SUV at 40 min [1]: 0.289 SUV
- SUV at 1 h [1]: 0.243 SUV
- SUV at 2 h [1]: 0.0668 SUV
- SUV at 5 min (male, SUV lungs (LU)): 1.28 SUV
- SUV at 10 min (male, SUV lungs (LU)): 1 SUV
- SUV at 0.5 h (male, SUV lungs (LU)): 0.566 SUV
- SUV at 40 min (male, SUV lungs (LU)): 0.563 SUV
- SUV at 5 min (male, SUV muscle (MU)): 0.401 SUV
- SUV at 10 min (male, SUV muscle (MU)): 0.507 SUV
- SUV at 0.5 h (male, SUV muscle (MU)): 0.116 SUV
- SUV at 40 min (male, SUV muscle (MU)): 0.104 SUV
- SUV at 1 h (male, SUV muscle (MU)): 0.106 SUV
- SUV at 2 h (male, SUV muscle (MU)): 0.0164 SUV
- SUV at 5 min (male, SUV pancreas (PA)): 0.472 SUV
- SUV at 10 min (male, SUV pancreas (PA)): 0.419 SUV
- SUV at 0.5 h (male, SUV pancreas (PA)): 0.261 SUV
- SUV at 40 min (male, SUV pancreas (PA)): 0.2 SUV
- SUV at 1 h (male, SUV pancreas (PA)): 0.111 SUV
- SUV at 2 h (male, SUV pancreas (PA)): 0.0272 SUV
- SUV at 5 min (male, SUV red bone marrow (BM)): 0.584 SUV
- SUV at 10 min (male, SUV red bone marrow (BM)): 0.543 SUV
- SUV at 0.5 h (male, SUV red bone marrow (BM)): 0.262 SUV
- SUV at 40 min (male, SUV red bone marrow (BM)): 1.01 SUV
- SUV at 1 h (male, SUV red bone marrow (BM)): 1.15 SUV
- SUV at 2 h (male, SUV red bone marrow (BM)): 0.154 SUV
- SUV at 5 min [2]: 0.731 SUV
- SUV at 10 min [2]: 0.5 SUV
- SUV at 0.5 h [2]: 0.256 SUV
- SUV at 40 min [2]: 0.412 SUV
- SUV at 1 h [2]: 0.132 SUV
- SUV at 2 h [2]: 0.0313 SUV
- SUV at 5 min (male, SUV spleen (SP)): 0.541 SUV
- SUV at 10 min (male, SUV spleen (SP)): 0.376 SUV
- SUV at 0.5 h (male, SUV spleen (SP)): 0.241 SUV
- SUV at 40 min (male, SUV spleen (SP)): 0.205 SUV
- SUV at 1 h (male, SUV spleen (SP)): 0.126 SUV
- SUV at 2 h (male, SUV spleen (SP)): 0.0652 SUV
- decrease of kidney SUV: 40-50%
- highest SUV (kidneys): around 12 SUV
